doi:10.1101/2021.06.01.446590

Legend:
[1] = biological target: human parkin, full-length (human) (UniProt O60260); test: ITC
parkin/pUb = parkin/pUb (UniProt O60260); test: ITC
Sequence of parkin/pUb (O60260 whole entry, chain 1 of 2): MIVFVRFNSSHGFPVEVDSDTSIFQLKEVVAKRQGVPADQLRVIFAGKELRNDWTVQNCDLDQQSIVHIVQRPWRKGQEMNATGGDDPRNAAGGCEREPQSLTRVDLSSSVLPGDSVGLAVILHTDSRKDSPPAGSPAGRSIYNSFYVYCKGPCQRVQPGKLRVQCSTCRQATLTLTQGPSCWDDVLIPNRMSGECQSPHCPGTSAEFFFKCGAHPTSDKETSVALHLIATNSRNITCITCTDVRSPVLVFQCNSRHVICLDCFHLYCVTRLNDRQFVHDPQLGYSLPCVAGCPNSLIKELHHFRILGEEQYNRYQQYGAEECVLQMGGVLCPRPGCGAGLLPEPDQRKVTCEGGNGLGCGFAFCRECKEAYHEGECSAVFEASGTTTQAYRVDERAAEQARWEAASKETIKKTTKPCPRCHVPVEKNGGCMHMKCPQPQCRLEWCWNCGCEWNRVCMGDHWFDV
Sequence of parkin/pUb (P0CG63 1-76, chain 2 of 2, further chain): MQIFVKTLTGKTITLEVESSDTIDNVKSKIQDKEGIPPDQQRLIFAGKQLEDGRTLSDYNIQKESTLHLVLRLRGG

Sequence of human parkin, full-length (human) (O60260 whole entry): as the sequence (O60260 whole entry, chain 1 of 2) above
Sequence of UbcH7~Ub (P68036 whole entry): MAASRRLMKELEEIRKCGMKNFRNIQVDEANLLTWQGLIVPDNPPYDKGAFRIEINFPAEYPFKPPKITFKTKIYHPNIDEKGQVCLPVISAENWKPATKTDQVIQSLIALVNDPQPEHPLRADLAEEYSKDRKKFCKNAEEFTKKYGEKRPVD
Sequence of UbcH7~Ub (P0CG63 1-76): as the sequence (P0CG63 1-76, chain 2 of 2, further chain) above

Row | Kd [1] | Kd (parkin/pUb) | Substance
1 | 428 nM | – | CISD1-pUb (CISD1-Ub phosphorylated at S65 of Ub by PINK1) (from UniProt Q9NZ45 32-108; P0CG63 1-76)
2 | – | 40000 nM | UbcH7~Ub (from UniProt P68036 1-154; P0CG63 1-76) (complex)
3 | 894 nM | – | mG2^T-pUb (mG2^T-Ub phosphorylated at S65 of Ub by PINK1) (from UniProt Q8IXI2 402-582; P0CG63 1-76)
